This is an account of results in the RNAGym collection of RNA variant scans (doi:10.7554/elife.90254).

To fix the notation:
B1: LINE1-full (parent)
chain: UACGUAGGUGGUUUUCCCCUGAUAGUGCUAAGGGGGCCUGGAAGUUUGGACUGGGCAGAGCUCAACACAGCGUGGCAAAGUGGCUGUGGCUAGACUGCCUCUCUGGAUUCCUCGUCACUCAGCAGGGCAUCUCUGAGAGAAAUGCC

In the series the parent is B1. Nature of the series: self-cleavage, relative activity (ratio to wild type); higher = more cleavage; in vitro, sequencing; the parent is a self-cleaving ribozyme.
For the variant U104C A121U, the self-cleavage turned out to be 1.59.

Consider G105A A117U, for which the self-cleavage was found to be 1.74.

In the case of G105A A117G, the self-cleavage is 1.59.

In the case of U100A A142C, the self-cleavage came to 1.

Turning to U100A A142U, the self-cleavage was determined as 0.74.

Consider U100C U108A, for which the self-cleavage came out at 1.42.

Take G106A U134G: the self-cleavage came out at 1.86.

C101A U134G: the self-cleavage stood at 1.8.

Turning to C103U U109C, the self-cleavage was 0.53.

Consider U100C A117U, for which the self-cleavage worked out at 1.63.

For the variant U100C A117C, the self-cleavage amounted to 1.31.

As for U100C A117G, the self-cleavage amounted to 1.49.

For the variant C98U, the self-cleavage was determined as 0.4.

For the variant C98A, the self-cleavage is 0.17.

Take C98G: the self-cleavage was 0.13.

As to G97U A129U, the self-cleavage was 0.08.

For U100G A142G, the self-cleavage worked out at 1.01.

As to C101U U130C, the self-cleavage amounted to 1.54.

G106U A129G: the self-cleavage came to 0.98.

In the case of A107G A142G, the self-cleavage amounted to 1.83.

For U102C U112C, the self-cleavage amounted to 1.53.

As to U102C U112A, the self-cleavage amounted to 1.44.

Regarding U102C U112G, the self-cleavage was determined as 1.15.

On to U104C A117U, for which the self-cleavage was 1.73.

U102C C113A: the self-cleavage was 1.63.

Regarding U102C C113G, the self-cleavage came out at 1.08.

Turning to U102C C113U, the self-cleavage was 1.48.

Consider U102C U109A, for which the self-cleavage was found to be 1.31.

As for U100G A136G, the self-cleavage worked out at 0.59.

For the variant U100C C118A, the self-cleavage is 2.

For C103U A124G, the self-cleavage was determined as 1.56.

On to U104G U132A, for which the self-cleavage was found to be 1.06.

Turning to C99U A140G, the self-cleavage turned out to be 0.71.

U100A U132A: the self-cleavage is 0.31.

With U102A A129G, the self-cleavage turned out to be 1.72.

Take G105A A141U: the self-cleavage amounted to 0.

Take G105A A141G: the self-cleavage is 0.87.

Consider C99A A138G, for which the self-cleavage was determined as 0.88.

Turning to U100C U130G, the self-cleavage came out at 1.02.

Regarding U100C U130A, the self-cleavage came to 1.85.

Take U100A G126A: the self-cleavage stood at 1.03.

As to A107G U134C, the self-cleavage came to 1.33.

For A107G U134A, the self-cleavage turned out to be 1.45.

With G106U U132C, the self-cleavage is 1.31.

U104C A138U: the self-cleavage turned out to be 1.87.

Turning to U104C A138G, the self-cleavage was found to be 1.87.

A107U A138U: the self-cleavage came out at 2.59.

For U102C C120A, the self-cleavage turned out to be 2.26.

On to U102C C120U, for which the self-cleavage is 1.71.

Regarding C98A U108C, the self-cleavage worked out at 0.4.

In the case of U104A A117U, the self-cleavage worked out at 1.31.

For the variant U104C U115A, the self-cleavage is 0.22.

For the variant U102C G144A, the self-cleavage worked out at 1.15.

As for U102C G144C, the self-cleavage came out at 1.17.

In the case of C103U A140G, the self-cleavage was 1.44.

With U102C C116U, the self-cleavage was found to be 1.72.

With U100A A121G, the self-cleavage amounted to 1.58.

Turning to C99U U130C, the self-cleavage was 0.69.

As to A107G U132C, the self-cleavage came to 1.62.

Regarding U100C A121G, the self-cleavage was 1.21.

As for U100C A121U, the self-cleavage is 2.11.

In the case of U102C U104C, the self-cleavage amounted to 0.95.

For the variant U102C U104G, the self-cleavage worked out at 1.6.

For C98U U102C, the self-cleavage amounted to 0.55.

With C101U U108C, the self-cleavage turned out to be 1.37.

In the case of C103A A129G, the self-cleavage was determined as 1.59.

Consider U104C G125U, for which the self-cleavage was found to be 1.68.

For the variant G106C U108C, the self-cleavage worked out at 2.2.

With U104C C123A, the self-cleavage worked out at 1.73.

Regarding C101U U102G, the self-cleavage came to 0.3.

Regarding U100A U112A, the self-cleavage turned out to be 0.91.

As to U100A U112C, the self-cleavage amounted to 1.09.

In the case of G105U A124U, the self-cleavage was found to be 0.22.

In the case of U100A C118U, the self-cleavage came to 0.98.

For G97U A138U, the self-cleavage is 0.11.

Turning to U100C C123U, the self-cleavage was 2.06.

On to U104C G144A, for which the self-cleavage came out at 2.03.

On to G106A G135U, for which the self-cleavage came to 1.88.

For the variant U104C G135A, the self-cleavage is 1.52.

Take G105U A140U: the self-cleavage was found to be 1.53.

Regarding G97C G106U, the self-cleavage came out at 0.2.

U104C U134G: the self-cleavage was 0.75.

U104G C123U: the self-cleavage turned out to be 1.25.

Consider U102C A138G, for which the self-cleavage was 1.42.

Consider C103A U130C, for which the self-cleavage turned out to be 1.9.

For C98G G125A, the self-cleavage worked out at 0.05.

Take C99G U112A: the self-cleavage came out at 0.69.

C99A A107G: the self-cleavage stood at 0.61.

For the variant C103U A136G, the self-cleavage came to 1.39.

As to A107G A136G, the self-cleavage is 1.31.

Turning to C99U C133U, the self-cleavage amounted to 0.34.

Consider U102C A140G, for which the self-cleavage worked out at 1.45.

For U102C A140U, the self-cleavage was determined as 1.48.

On to G97C C111A, for which the self-cleavage turned out to be 0.18.

C99A C113U: the self-cleavage was found to be 0.27.

Regarding U100C A141G, the self-cleavage is 1.9.

With U102C A136G, the self-cleavage is 1.34.

Turning to U102C C128U, the self-cleavage came to 1.67.

U102C C128A: the self-cleavage was 0.39.

On to U102C C118U, for which the self-cleavage is 1.59.

Turning to U104C U130C, the self-cleavage was found to be 1.71.

In the case of U102C G106A, the self-cleavage is 1.19.

As for U100G U104A, the self-cleavage came out at 1.17.

For the variant A107G A140U, the self-cleavage turned out to be 0.94.

Consider U100G U119C, for which the self-cleavage was found to be 2.45.

For G105A G127U, the self-cleavage is 1.31.

As to U104G U134C, the self-cleavage was 1.39.

Take U100C U109C: the self-cleavage was 1.37.

On to U100C U109A, for which the self-cleavage was 1.77.

C103A U112G: the self-cleavage was 0.72.

In the case of C103A U112C, the self-cleavage came out at 1.01.

As for C99U U115C, the self-cleavage was 1.15.

For the variant C99U U115A, the self-cleavage amounted to 0.33.

Turning to U102C G137A, the self-cleavage turned out to be 1.8.

As for U100C C111U, the self-cleavage turned out to be 1.48.

Turning to U102C G122U, the self-cleavage came out at 1.63.

Consider A107G A141C, for which the self-cleavage stood at 1.51.

As to A107G A141G, the self-cleavage came to 1.64.

Turning to A107G G127C, the self-cleavage was determined as 1.72.

Consider A107G G127A, for which the self-cleavage turned out to be 1.81.

Turning to U104A A142G, the self-cleavage worked out at 1.43.

Turning to U102A G105U, the self-cleavage stood at 1.09.

Regarding C99A A124G, the self-cleavage was found to be 0.21.

Turning to U102C U143C, the self-cleavage came to 1.09.

U102C U143G: the self-cleavage stood at 1.59.

For the variant U100A U119A, the self-cleavage is 0.71.

With U104A A124U, the self-cleavage was 1.25.

Turning to A107G A124U, the self-cleavage was determined as 1.27.

On to A107U A117C, for which the self-cleavage came to 2.32.

For the variant U100A U108A, the self-cleavage was 0.97.

For the variant U100A U108C, the self-cleavage amounted to 1.96.

Regarding U100A A138U, the self-cleavage was 0.89.

For U100A A138G, the self-cleavage was 1.18.

On to U102A A142G, for which the self-cleavage was 1.9.

Consider A107G A129U, for which the self-cleavage was 1.84.

For the variant U100C G144C, the self-cleavage came to 1.95.

Turning to U100C G144A, the self-cleavage came out at 1.07.

As for G105U U109C, the self-cleavage was determined as 1.93.

As to U102G A121G, the self-cleavage was 0.59.

As for U100A C145U, the self-cleavage was 1.15.

For the variant U102A U115C, the self-cleavage came to 1.88.

For U102A U115G, the self-cleavage turned out to be 2.51.

With U100C U132A, the self-cleavage is 2.37.

As to U104C U112C, the self-cleavage was determined as 1.66.

On to U104A G114U, for which the self-cleavage was 1.09.

On to U102C A129U, for which the self-cleavage was 1.22.

Consider U100G A107G, for which the self-cleavage stood at 1.31.

With A107C U108A, the self-cleavage was found to be 1.36.

With U102C C110U, the self-cleavage amounted to 1.78.

Consider U102A U108C, for which the self-cleavage amounted to 1.14.

Regarding U104A U108C, the self-cleavage is 1.14.

For the variant A107G U108G, the self-cleavage stood at 1.53.

For the variant A107G U108A, the self-cleavage was found to be 1.47.

On to U104G U130A, for which the self-cleavage amounted to 0.

Turning to C98U A107G, the self-cleavage turned out to be 0.46.

For the variant C103A A138G, the self-cleavage came out at 1.6.

As for U100A A124C, the self-cleavage was 1.28.

As to U100A A124U, the self-cleavage stood at 0.88.

In the case of U100C A107C, the self-cleavage is 2.87.

Regarding U100C A124G, the self-cleavage worked out at 1.32.

As for U100C A124U, the self-cleavage amounted to 2.22.

As to C99A U115C, the self-cleavage was found to be 0.84.

For A107C U143C, the self-cleavage stood at 1.67.

Turning to U102C U132A, the self-cleavage stood at 1.34.

Turning to U100A G139U, the self-cleavage was 0.31.

Turning to U104C A129U, the self-cleavage was determined as 1.73.

U104C A129G: the self-cleavage is 2.04.
